The source of these data is patent US5976792.

The test concerns the target 125I-labeled fibronectin. In words: binding of 125I-labeled fibronectin to whole bacterial cells.
“whole cells of S. aureus ALC561 (ALC136 with pALC561, sar fragment nt 1-1349) (cells without a defined receptor)” gave a cpm of 125I fibronectin bound to 10^9 CFU of 19300 cpm.

Substance “whole cells of S. aureus strain RN6390 (parental strain) (cells without a defined receptor)” had a cpm of 125I fibronectin bound to 10^9 CFU of 3320 cpm.

As for “whole cells of S. aureus sar mutant ALC136 (isogenic mutant of RN6390 carrying a sar::Tn917LTV1 mutation) (cells without a defined receptor)”, the cpm of 125I fibronectin bound to 10^9 CFU worked out at 2390 cpm.
